From patent US20210309732A1 (ELIXIRON IMMUNOTHERAPEUTICS HONG KONG, published 2021)

Key:
[1] = biological target: T1, recombinant human GM-CSF (human, UniProt P04141 18-144); assay: Biacore
T1 construct: also called rhGM-CSF; CSF2

[2] = biological target: T1, recombinant human GM-CSF; assay: Biacore; remark: listed apart in the source
[3] = biological target: T1, recombinant human GM-CSF; assay: Gator, Coating Ab
[4] = biological target: T1, recombinant human GM-CSF; assay: Gator, Coating Ag
[5] = biological target: T1, recombinant human GM-CSF; assay: cell-based or functional assay
[6] = biological target: T1, recombinant human GM-CSF; assay: Biacore; remark: listed apart in the source
[7] = biological target: T1, recombinant human GM-CSF; assay: cell-based or functional assay; remark: listed apart in the source
[8] = biological target: T1, recombinant human GM-CSF; assay: Gator (pro), Coating Ag
[9] = biological target: T1, recombinant human GM-CSF; assay: ELISA on coated rhGM-CSF, UBA relative to 1D2
Method in brief: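 Antibody clones carrying SDR point mutants in VH or VL, each paired with the wild-type chain, were expressed in HEK293 cells. Culture media diluted 1:12000 were bound to plates coated with rhGM-CSF at 1 μg/mL for 1 h at room temperature. Detection used HRP anti-human antibody and Amplex Red fluorescence (Ex530/Em590), with UBA = fluorescence signal/dilution factor.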

[10] = biological target: T1, recombinant human GM-CSF; assay: SPR Biacore 3000, antibody captured by goat anti-human IgG, rhGM-CSF injected
Experimental: The kinetic binding analysis of anti-GM-CSF antibodies to recombinant human GM-CSF (rhGM-CSF) was determined by Surface plasmon resonance (SPR) using the Biacore 3000 instrument (GE Healthcare). Goat anti-human IgG (5 μg/mL) (SouthernBiotech) was stabilized in […] acetate buffer, pH 4.5, and immobilized on an EDC/NHS pre-activated carboxymethylated dextran 5 (CMS) sensor chip (GE Healthcare) through amine coupling kit (GE Healthcare). HBS-EP buffer (HBS; 10 […], 0.005% surfactant Tween-20, pH 7.4) (GE Healthcare) was used as running buffer. […] CMS sensor chip coated only with goat anti-human IgG was used as reference chip. rhGM-CSF (Biolegend) was injected over the mAb-coated CMS sensor chip and reference chip at different concentrations. The flow rate was 30 μl/min. […] Injection time and dissociation time were 180 and 600 seconds. Data were fitted to a 1:1 model using the Biacore 3000 evaluation software.

[11] = biological target: T1, recombinant human GM-CSF; assay: ELISA, GM-CSF coated on the plate, anti-human kappa light chain-HRP, OD 450 nm
Experimental: (§1) Human and mouse GM-CSF have about 56% homology and are species specific. Rhesus and GM-CSF has 96.5% homologous to human GM-CSF (Hutchinson et al, J Med Virol 2001, 65:561-565, Genbank accession number AY007376). […] ELISA was performed as followed. Briefly, GM-CSF proteins were coated on the ELISA absorbing plates, then blocked by 1% BSA in PBS. […] After incubation, the plates were washed three times with TBST and incubated with anti-human kappa light chain conjugated HRP secondary antibodies. Plates were washed three times, TMB peroxidase substrate was added and reactions were stopped by adding 1 N sulfuric acid.

[12] = biological target: T2, mouse GM-CSF (mouse, UniProt P01587 18-141); assay: as above
T2 sequence (looked up): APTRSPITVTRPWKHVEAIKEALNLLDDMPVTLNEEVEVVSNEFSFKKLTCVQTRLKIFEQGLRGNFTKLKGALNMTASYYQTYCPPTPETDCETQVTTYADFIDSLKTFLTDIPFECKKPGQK
Experimental: as §1

[13] = biological target: T3, rhesus GM-CSF (rhesus, UniProt Q9GL44 18-144); assay: as above
T3 sequence (Q9GL44 entry or part of it limits assumed): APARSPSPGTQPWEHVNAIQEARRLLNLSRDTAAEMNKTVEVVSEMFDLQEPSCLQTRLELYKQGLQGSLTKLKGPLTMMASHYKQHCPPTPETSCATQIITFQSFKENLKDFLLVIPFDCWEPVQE
Experimental: as §1

[14] = biological target: T1, recombinant human GM-CSF; assay: ELISA, human GM-CSF coated on the plate, anti-human kappa light chain-HRP, OD 450 nm
Experimental: as §1

[15] = biological target: T3, rhesus GM-CSF; assay: ELISA, rhesus GM-CSF coated on the plate, anti-human kappa light chain-HRP, OD 450 nm
Experimental: as §1

T1 sequence (P04141 18-144 limits assumed): as the sequence (Q9GL44 entry or part of it limits assumed) above, with G9S, K38E, V43I, S53T, Q67R, Q104E counted along it

Ka [1]: 1.01e+10 M⁻¹ | Kd [1]: 0.099 nM | koff [1]: 0.000173 s⁻¹ | kon [1]: 1.75e+06 M⁻¹ s⁻¹ | Kd [2]: 0.162 nM | Kd [3]: 0.177 nM | Kd [4]: 0.0176 nM | IC50, inhibition of GM-CSF induced TF-1 cell proliferation [5]: 0.0631 nM | IC50, inhibition of rhGM-CSF induced CCL17 secretion from PBMCs [5]: 0.0714 nM | IC50, inhibition of rhGM-CSF induced CCL17 secretion in human PBMCs [5]: 0.159 nM | IC50, inhibition of rhGM-CSF induced IL-8 secretion in U937 cells [5]: 0.0594 nM | Kd [6]: 0.099 nM | koff [6]: 0.000173 s⁻¹ | kon [6]: 1.75e+06 M⁻¹ s⁻¹ | IC50 (M), inhibition of GM-CSF induced TF-1 cell proliferation (FIG. 5A) [7]: 1.71e-10 M | IC50 (M), inhibition of GM-CSF induced TF-1 cell proliferation (FIG. 5B) [7]: 2.28e-10 M | Kd [8]: 0.00157 nM | binding affinity % of 1D2 [9]: 100% | Kd [10]: 0.0643 nM | koff [10]: 7.48e-05 s⁻¹ | kon [10]: ~1.16e+06 M⁻¹ s⁻¹ | EC50 (read off the curve) [11]: ~0.08 nM | binding result [12]: no binding (tested: about 4e-8 M) | EC50 (read off the curve) [13]: ~0.06 nM | EC50 (read off the curve) [14]: ~0.4 nM | EC50 (read off the curve) [15]: ~0.5 nM
B1: antibody 1D2 (antibody, V domains shown)
VH: QVQLVQSGAEVKKPGASVKVSCEASGYTFTDKYLHWVRQAPGQGLEWMAWINPKSGGTFYAQNFKGRVTVTRDTSINTAYLELTSLRLDDTSTYYCARGRDYYDQGAADLWGQGTMVTVSS
VL: DIQLTQSPSSLSASVGDRVTITCRASQGINSVLAWYQQKPGKAPKLLLYAASKLESGVPSRFSGSGSGTDYTLTISSLQPEDFGTYYCQQYYSPVRTFGQGTKVEIKR
notes: also called 1D2-WT; WT
